Target: T1, Sea4-TAP (S. cerevisiae (endogenous in yeast …, UniProt P38164 1-1038))
T1 construct: Sea4, S. cerevisiae, endogenous subunit of the SEAC (SEACAT, core), TAP-tagged; Captured by the TAP tag on IgG beads; the complex was released with TEV protease before SDS-PAGE and cryo-EM; Written 'Sea4-TAP'; Four copies in the SEAC; source: endogenous, yeast cells expressing Sea4-TAP; in lysate, purified on IgG-coupled Dynabeads and eluted with TEV protease
T1 sequence (looked up): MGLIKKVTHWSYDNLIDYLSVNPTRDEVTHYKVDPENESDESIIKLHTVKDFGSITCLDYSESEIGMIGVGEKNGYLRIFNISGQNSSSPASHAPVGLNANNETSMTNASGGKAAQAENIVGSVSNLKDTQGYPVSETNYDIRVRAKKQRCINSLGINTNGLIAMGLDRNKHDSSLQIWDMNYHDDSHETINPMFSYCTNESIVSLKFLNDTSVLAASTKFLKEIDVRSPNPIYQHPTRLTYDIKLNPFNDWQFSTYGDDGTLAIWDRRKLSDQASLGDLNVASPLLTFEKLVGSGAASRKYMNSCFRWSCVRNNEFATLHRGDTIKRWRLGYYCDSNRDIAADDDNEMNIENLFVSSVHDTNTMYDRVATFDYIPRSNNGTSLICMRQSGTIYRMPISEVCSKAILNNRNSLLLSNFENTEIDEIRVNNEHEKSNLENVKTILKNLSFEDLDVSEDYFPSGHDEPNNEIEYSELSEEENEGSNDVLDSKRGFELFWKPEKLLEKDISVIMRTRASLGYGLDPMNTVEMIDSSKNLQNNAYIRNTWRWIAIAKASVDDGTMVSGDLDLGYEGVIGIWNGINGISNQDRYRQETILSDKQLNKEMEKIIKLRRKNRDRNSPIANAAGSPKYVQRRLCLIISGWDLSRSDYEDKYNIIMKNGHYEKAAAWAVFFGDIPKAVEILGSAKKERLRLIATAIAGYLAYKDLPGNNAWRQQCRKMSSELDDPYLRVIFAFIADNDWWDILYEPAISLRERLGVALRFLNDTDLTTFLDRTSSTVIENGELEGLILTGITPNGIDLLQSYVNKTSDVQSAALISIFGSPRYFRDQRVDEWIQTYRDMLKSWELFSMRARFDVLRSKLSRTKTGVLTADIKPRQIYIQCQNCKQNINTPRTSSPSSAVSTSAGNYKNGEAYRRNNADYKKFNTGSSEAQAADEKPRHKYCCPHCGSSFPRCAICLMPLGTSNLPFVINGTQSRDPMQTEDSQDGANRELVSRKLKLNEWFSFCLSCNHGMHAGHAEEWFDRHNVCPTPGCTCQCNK
Assay: cryo-EM structure; endogenous SEAC purified from yeast via Sea4-TAP (IgG Dynabeads, TEV elution in 20 mM HEPES-NaOH pH 7.4, 300 mM NaCl, 2 mM DTT), on graphene-oxide-coated grids
Conditions: both partners purified

B1: Seh1 (natural protein, UniProt P53011 1-349, looked up)
chain: MQPFDSGHDDLVHDVVYDFYGRHVATCSSDQHIKVFKLDKDTSNWELSDSWRAHDSSIVAIDWASPEYGRIIASASYDKTVKLWEEDPDQEECSGRRWNKLCTLNDSKGSLYSVKFAPAHLGLKLACLGNDGILRLYDALEPSDLRSWTLTSEMKVLSIPPANHLQSDFCLSWCPSRFSPEKLAVSALEQAIIYQRGKDGKLHVAAKLPGHKSLIRSISWAPSIGRWYQLIATGCKDGRIRIFKITEKLSPLASEESLTNSNMFDNSADVDMDAQGRSDSNTEEKAELQSNLQVELLSEHDDHNGEVWSVSWNLTGTILSSAGDDGKVRLWKATYSNEFKCMSVITAQQ
notes: Seh1, S. cerevisiae, endogenous subunit of the SEAC (SEACAT, core); Native protein of the purified complex; six copies in the SEAC; source: endogenous, yeast cells expressing Sea4-TAP; in lysate and co-purified with Sea4-TAP (IgG Dynabeads, TEV elution)
- binding result: binds

Source: article PMC9646525, “Cryo-EM structure of the SEA complex” (Nature, 2022)
